Values of other authors, collected in patent US12653898B2, “Polyoxyethylene derivatives and conjugates thereof” (NATIONAL UNIVERSITY CORPORATION HOKKAIDO UNIVERSITY, priority 2023, dated 2026).
Read-outs that look alike come from different tables or passages of the source.

Details: under physiological conditions

B1: conjugate of bovine pancreas-derived ribonuclease A (RNase A) and compound 7: conjugate of RNase A and compound 7 (1-benzyl-1H-1,2,3-triazole-4-carbaldehyde) of WO 2020/175680 (conjugate, UniProt P61823 27-150, looked up)
Ribonuclease pancreatic: KETAAAKFERQHMDSSTSAASSSNYCNQMMKSRNLTKDRCKPVNTFVHESLADVQAVCSQKNVACKNGQTNCYQSYSTMSITDCRETGSSKYPNCAYKTTQANKHIIVACEGNPYVPVHFDASV
modifications: triazole carbaldehyde compound 7 conjugate
degradation half-life (FIG. 54 of WO 2020/175680): 12 to 18 h
degradation half-life (comparison value from WO 2020/175680): 12 to 18 h
